Here are results for two molecules from publication doi:10.1101/2022.06.28.498018 (bioRxiv, 2022).

The target of series [1] is P116 variant Trp681Ala (Mycoplasma pneumoniae) (UniProt P75556). In words: SEC-MALS.
The series “cryo-EM structure” deals with the molecule itself. Kind of series: cryo-EM structure.

For “P116 variant Trp681Ala (from UniProt P75556 30-957) (domain or fragment)”, in series [1], the ratio of dimers to monomers (dimers per monomer) came to 0.25.

B1: P116 ectodomain (residues 30-957) from Mycoplasma pneumoniae (domain or fragment, UniProt P75556 30-957, looked up)
chain: NKTHQVEHESEQSDFQDIRFGLNSVKLPKAQPAAATRITVENGTDKLVNYKSSPQQLFLAKNALKDKLQGEFDKFLSDAKAFPALTADLQEWVDQQLFNPNQSFFDLSAPRSNFTLSSDKKASLDFIFRFTNFTESVQLLKLPEGVSVVVDSKQSFDYYVNASAQKLLVLPLSLPDYTLGLNYMFDHITLNGKVVNKFSFNPFKTNLNLAFSNVYNGVDVFEAQKNLVGKGKYLNTHVKAEDVKKDVNANIKNQFDIAKIIAELMGKALKEFGNQQEGQPLSFLKVMDKVKEDFEKLFNLVRPGLGKFVKDLIQSSSQAENKITVYKLIFDNKKTILNLLKELSIPELNSSLGLVDVLFDGITDSDGLYERLQSFKDLIVPAVKTNEKTAALSPLIEELLTQKDTYVFDLIQKHKGILTNLLKNFLADFQKSTPFMADQVAIFTELFDNEGAFDLFGEADFVDKIAELFLTKRTVKNGEKIETKDSLLVTSLKSLLGEKVAALGDLLDSYIFKNELLNRSVEVAKAEAKDTKGATDYKKEQAKALKKLFKHIGENTLSKTNLDKITLKEVKNTENVELEETETTLKVKKLDVEYKVELGNFEIKNGLIKAMLEFLPDTKDLETTLDKLLFKGESYKAMKDKYIKEGFPGYGWAKGVVPGAFESIENTFKSAIDKTKSIRDLFGDMLFGNDLSSVKETDSFITLGGSFDIKYGGENLNVLPAYYSLINSEIGYQIIGVDTTIDATKVKVELKNKEYKGKSPAINGQVKLSQSFFNVWTNMFDSITKQIFQKKYEFKDNIQVFARNEDNTSRLELDISDPEQRVIPFAFVDGFGIQLKAVDKNITKEAGNTEPKSPVIQLYEALNKEKDQKQQSKQSPKQLDTKTQLGYLLKLGDNWSKDDYKSLIDDTIINNNYLEASFNSKITVDRLG
B1: the stoichiometry N (usually the number of molecules, sites or subunits per partner or assembly) in the series “cryo-EM structure” worked out at 2.
